Starred links: 1 amine or outer side, 2 acyl side, 3 side chain; linkers in the order of their positions; H or OH if unused. Positions of bridges follow the written chain, without caps; N, C: chain ends. Non-standard residues stand in square brackets, D forms with d. Primed or numbered codes have the meaning given here. B5(4) = 2,2-bis(4-pentenyl)glycine = 2-amino-2-(pent-4-en-1-yl)hept-6-enoic acid (stitching residue), C=CCCCC(CCCC=C)(N[*:1])C(=O)[*:2]; PyrS2 = (S)-3-amino-1-((pent-4-en-1-yloxy)carbonyl)pyrrolidine-3-carboxylic acid, C=CCCCOC(=O)N1CC[C@@](N[*:1])(C(=O)[*:2])C1; Phe(2-Cl) = N[C@@H](Cc1ccccc1Cl)C(=O)O; Bta = N[C@@H](Cc1csc2ccccc12)C(=O)O; αAllylPro = C=CC[C@@]1(C(=O)O)CCCN1; tBuAla = CC(C)(C)C[C@H](N)C(=O)O; 3Thi = N[C@@H](Cc1ccsc1)C(=O)O; Thr(ol) = C[C@@H](O)[C@H](N)CO
T1: beta-catenin (in DLD1 TCF/LEF luciferase reporter cells) (UniProt P35222 1-781)
T1 sequence (looked up): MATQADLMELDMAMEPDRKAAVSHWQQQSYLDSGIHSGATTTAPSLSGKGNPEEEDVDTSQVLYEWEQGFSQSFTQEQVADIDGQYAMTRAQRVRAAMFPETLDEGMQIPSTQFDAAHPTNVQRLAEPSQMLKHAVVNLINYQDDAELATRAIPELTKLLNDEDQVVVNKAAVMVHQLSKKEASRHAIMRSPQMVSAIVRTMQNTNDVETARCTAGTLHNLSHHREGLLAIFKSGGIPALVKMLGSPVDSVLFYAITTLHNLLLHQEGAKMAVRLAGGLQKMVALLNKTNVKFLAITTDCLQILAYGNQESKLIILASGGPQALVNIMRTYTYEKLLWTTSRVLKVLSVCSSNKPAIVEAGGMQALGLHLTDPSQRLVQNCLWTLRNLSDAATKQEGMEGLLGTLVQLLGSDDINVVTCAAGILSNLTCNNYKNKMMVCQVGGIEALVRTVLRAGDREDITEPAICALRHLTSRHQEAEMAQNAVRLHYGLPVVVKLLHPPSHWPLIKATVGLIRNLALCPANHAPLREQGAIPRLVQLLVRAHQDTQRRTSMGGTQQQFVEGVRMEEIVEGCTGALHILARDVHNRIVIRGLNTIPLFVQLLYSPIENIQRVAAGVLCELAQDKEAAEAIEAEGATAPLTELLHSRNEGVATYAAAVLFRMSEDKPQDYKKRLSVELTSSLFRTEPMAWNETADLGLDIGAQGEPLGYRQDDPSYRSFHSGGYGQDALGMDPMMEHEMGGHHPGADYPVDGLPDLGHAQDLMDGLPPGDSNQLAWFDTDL

T2: B-cat-Halo (UniProt P35222 1-781)
T2 sequence (looked up): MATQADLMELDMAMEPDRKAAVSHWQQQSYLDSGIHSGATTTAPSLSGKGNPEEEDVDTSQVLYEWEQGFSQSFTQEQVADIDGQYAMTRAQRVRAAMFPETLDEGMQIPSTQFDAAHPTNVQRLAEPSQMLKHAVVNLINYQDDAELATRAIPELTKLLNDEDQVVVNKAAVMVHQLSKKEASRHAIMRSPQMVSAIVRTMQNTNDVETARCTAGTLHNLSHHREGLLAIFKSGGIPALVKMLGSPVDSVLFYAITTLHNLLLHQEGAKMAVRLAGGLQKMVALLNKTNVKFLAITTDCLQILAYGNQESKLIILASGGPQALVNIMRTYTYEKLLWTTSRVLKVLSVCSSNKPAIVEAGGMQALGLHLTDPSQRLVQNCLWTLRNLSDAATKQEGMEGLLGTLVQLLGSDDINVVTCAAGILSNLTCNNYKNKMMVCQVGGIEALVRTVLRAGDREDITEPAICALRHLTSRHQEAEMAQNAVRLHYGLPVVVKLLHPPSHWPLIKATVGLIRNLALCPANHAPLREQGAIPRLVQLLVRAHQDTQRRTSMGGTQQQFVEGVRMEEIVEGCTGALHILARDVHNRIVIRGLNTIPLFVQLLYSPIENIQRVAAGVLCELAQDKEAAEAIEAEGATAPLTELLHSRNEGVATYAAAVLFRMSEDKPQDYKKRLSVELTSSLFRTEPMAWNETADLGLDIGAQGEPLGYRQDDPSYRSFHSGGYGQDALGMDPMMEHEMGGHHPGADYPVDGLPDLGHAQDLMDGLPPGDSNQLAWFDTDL

T3: full-length beta-Catenin (Uniprot ID P35222) (Homo sapiens (Human), UniProt P35222 1-781)
T3 construct: The FP protocol says full-length beta-Catenin (Uniprot ID P35222); also called bCat; B-Catenin
T3 sequence: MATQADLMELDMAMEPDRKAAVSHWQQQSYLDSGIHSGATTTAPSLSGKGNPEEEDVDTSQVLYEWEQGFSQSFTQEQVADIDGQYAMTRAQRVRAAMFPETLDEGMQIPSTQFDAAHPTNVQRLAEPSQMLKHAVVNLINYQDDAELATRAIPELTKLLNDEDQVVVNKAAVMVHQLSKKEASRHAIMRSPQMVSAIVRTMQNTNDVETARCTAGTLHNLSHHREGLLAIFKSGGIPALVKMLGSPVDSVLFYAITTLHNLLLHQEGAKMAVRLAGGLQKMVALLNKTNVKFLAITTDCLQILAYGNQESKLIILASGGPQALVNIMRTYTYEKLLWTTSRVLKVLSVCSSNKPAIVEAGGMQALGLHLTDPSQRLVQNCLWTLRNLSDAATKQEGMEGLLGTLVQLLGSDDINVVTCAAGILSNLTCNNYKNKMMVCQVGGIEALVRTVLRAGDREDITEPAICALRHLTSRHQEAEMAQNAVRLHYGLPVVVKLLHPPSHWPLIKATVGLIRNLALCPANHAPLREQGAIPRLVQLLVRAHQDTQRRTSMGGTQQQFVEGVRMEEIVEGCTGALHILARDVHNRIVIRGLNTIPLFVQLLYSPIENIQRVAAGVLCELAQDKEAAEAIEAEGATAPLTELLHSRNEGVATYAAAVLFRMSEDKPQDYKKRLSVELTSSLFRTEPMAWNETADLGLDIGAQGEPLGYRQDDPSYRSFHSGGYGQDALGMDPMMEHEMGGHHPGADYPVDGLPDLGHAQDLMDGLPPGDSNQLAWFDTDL

T4: B-cat-Halo (beta-catenin HaloTag NanoBRET construct expressed in HEK293 cells) (UniProt P35222 1-781)
T4 sequence (looked up): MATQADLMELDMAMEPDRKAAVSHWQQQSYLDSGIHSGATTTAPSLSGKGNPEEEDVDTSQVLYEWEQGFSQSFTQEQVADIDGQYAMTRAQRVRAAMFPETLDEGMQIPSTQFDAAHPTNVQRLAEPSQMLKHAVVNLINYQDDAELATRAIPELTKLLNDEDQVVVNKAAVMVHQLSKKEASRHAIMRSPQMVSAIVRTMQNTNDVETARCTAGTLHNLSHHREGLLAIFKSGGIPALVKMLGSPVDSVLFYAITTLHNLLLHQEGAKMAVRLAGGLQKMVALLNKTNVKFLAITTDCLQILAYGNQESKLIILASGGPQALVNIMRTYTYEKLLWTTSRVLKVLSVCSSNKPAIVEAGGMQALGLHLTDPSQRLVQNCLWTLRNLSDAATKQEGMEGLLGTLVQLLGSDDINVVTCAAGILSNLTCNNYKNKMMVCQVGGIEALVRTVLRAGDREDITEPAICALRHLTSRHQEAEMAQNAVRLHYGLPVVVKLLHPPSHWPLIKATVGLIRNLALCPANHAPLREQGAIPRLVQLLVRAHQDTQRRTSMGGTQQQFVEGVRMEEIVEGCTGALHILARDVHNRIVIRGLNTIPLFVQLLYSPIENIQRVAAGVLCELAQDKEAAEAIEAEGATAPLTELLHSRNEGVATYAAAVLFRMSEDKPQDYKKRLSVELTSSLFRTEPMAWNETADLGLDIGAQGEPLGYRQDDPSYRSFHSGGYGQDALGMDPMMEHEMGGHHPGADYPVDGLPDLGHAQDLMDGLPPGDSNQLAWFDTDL

T5: beta-catenin in DLD1 TCF/LEF luciferase reporter cells (UniProt P35222 1-781)
T5 sequence (looked up): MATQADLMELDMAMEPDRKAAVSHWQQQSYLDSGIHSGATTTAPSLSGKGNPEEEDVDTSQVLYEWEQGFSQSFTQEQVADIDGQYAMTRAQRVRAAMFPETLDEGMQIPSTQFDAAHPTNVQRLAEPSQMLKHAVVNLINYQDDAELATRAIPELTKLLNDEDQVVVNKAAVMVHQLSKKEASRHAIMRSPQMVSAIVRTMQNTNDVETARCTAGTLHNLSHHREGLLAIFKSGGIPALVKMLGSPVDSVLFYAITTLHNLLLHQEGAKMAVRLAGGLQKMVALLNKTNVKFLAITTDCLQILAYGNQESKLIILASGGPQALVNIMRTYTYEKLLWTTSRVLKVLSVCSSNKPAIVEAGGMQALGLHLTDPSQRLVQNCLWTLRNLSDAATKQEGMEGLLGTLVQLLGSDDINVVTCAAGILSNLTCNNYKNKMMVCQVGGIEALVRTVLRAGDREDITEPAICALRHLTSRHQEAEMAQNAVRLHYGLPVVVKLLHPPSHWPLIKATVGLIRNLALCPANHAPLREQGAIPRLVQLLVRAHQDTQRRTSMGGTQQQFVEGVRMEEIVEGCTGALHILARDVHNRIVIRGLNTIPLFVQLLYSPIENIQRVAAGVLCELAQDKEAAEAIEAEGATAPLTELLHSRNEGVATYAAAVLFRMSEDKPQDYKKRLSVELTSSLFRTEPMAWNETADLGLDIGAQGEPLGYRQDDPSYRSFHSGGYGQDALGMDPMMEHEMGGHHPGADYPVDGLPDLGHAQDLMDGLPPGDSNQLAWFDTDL


Columns and labels:
[1] = target: T1, beta-catenin (in DLD1 TCF/LEF …); assay: cell-based or functional assay
B-cat-Halo = target: T2, B-cat-Halo; assay: cell-based or functional assay
[2] = target: T3, full-length beta-Catenin (Uniprot ID …); assay: fluorescence polarization competition; full-length beta-catenin, competitor 5FAM-TCF4(10-53) probe
Summary of the method: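 Plate incubated 60 minutes at 20° C. protected from light before reading. Concentrations given are final.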

[3] = target: T4, B-cat-Halo (beta-catenin HaloTag …); assay: cell-based or functional assay
[4] = target: T5, beta-catenin in DLD1 TCF/LEF luciferase …; assay: cell-based or functional assay

Binder	DLD1 4% Abs IC50 (uM); TCF/LEF luciferase reporter in DLD1 cells [1]	NanoBRET Abs IC50 (uM); B-cat-Halo / TCF4-Luc in HEK293 cells (B-cat-Halo)	EC50 [2]	NanoBRET Abs IC50 [3]	DLD1 reporter assay Abs IC50 [4]
Ac-[αAllylPro]D[tBuAla][B5(4)]DDAAFL[PyrS2][3Thi][Bta][Thr(ol)] (staple 1-4, 4-11) [I-1302]	4 µM	21.4 µM	–	–	–
Ac-[αAllylPro]DF[B5(4)]DDAAFS[PyrS2][Phe(2-Cl)][Bta]S-NH2 (staple 1-4, 4-11) [I-1051]	–	–	0.014 µM	> 20 µM	> 20 µM

Source: US20240116985A1 (published 2024)
